Tests used:
purified p97 antigen = target: T1, purified p97 antigen (Homo sapiens, UniProt P08582); test: size exclusion chromatography (SEC) binding assay, 2:1 p97 antigen to L49-sFv-bL; conditions: purified protein after ion exchange
T1 construct: Soluble p97 (amino acids 20-710 of human p97 precursor); 6xHis; made in house
T1 sequence (P08582 20-710): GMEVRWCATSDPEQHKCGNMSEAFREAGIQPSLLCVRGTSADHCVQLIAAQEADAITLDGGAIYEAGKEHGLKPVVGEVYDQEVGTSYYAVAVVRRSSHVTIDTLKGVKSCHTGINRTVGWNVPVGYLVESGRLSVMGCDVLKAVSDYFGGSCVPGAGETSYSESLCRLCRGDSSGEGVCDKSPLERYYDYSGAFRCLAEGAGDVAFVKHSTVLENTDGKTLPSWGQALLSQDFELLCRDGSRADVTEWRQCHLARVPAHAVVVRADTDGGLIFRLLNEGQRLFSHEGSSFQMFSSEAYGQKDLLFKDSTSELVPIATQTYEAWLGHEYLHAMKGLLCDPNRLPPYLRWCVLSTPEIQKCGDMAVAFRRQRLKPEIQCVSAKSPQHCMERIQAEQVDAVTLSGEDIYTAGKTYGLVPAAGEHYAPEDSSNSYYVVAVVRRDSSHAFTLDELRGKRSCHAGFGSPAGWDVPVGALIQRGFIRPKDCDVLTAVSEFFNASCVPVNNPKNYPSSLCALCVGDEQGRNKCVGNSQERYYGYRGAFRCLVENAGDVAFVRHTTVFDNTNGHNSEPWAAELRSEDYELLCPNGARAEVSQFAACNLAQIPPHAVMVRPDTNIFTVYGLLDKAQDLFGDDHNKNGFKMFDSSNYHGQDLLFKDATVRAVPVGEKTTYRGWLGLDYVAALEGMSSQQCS
Source text: Double mutants FP960 and FP965 and triple mutant FP990 all show improved refolding activity in crude lysates compared to the parental molecule, and therefore, all three mutant molecules were selected for further analysis. Proteins were expressed at the 1L scale in shake flasks as described in Materials and Methods, supra. Inclusion bodies (IBs) were obtained at a typical yield of 25% (±10%) wet IB mass/wet cell mass. Renatured L49-sFv-bL was purified by aminophenylboronate chromatography, dialyzed into 10 mM Na2PO4 and loaded onto Macro-prep HS resin. Fusion proteins were eluted in a stepwise fashion employing 250 mM NaCl. […] Mutants FP965 and FP990 were greater than 95% monomeric as shown by SEC-HPLC. However, FP960 contained only 55% monomer after cation exchange purification, possibly indicating a key role for the lysine residue at position H39 in refolding. The parental molecule, FP95, was present as 2 bands following aminophenylboronate chromatography. After ion-exchange chromatography only the upper of these 2 bands was eluted. A size exclusion chromatography (SEC) binding assay was developed in which a 2:1 ratio of purified p97 antigen to purified L49-sFv-bL was mixed and analyzed by HPLC-SEC (data not shown).

Recombinant p97 = target: T2, Recombinant p97 (Homo sapiens, UniProt P08582); test: binding affinity by surface plasmon resonance (Biacore 2000); conditions: 25° C., immobilized p97, 1:1 model, error in last digit in parentheses
T2 construct: Soluble p97 (amino acids 20-710 of human p97 precursor); 6xHis; made in house
T2 sequence (P08582 20-710): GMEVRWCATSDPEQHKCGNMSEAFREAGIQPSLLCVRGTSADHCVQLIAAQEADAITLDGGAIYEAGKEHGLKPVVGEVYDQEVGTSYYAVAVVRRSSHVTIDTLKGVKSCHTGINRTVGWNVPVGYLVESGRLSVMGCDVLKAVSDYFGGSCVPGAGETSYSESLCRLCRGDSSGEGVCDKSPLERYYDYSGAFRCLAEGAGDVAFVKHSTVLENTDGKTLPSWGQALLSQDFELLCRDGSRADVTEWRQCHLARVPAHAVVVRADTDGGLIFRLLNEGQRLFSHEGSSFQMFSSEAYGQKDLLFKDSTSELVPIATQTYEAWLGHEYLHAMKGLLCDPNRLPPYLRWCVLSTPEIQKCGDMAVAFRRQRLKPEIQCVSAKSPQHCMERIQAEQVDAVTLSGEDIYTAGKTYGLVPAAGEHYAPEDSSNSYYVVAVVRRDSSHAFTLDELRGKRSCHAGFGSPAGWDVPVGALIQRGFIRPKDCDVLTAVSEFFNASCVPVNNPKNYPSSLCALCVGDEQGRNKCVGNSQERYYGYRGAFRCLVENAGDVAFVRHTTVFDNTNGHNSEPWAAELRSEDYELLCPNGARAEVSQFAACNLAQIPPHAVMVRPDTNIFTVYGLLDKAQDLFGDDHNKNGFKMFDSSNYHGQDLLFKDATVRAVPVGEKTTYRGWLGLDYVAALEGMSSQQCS
Protocol: The buffer used in the study was PBS, 0.005% P20, 0.2 mg/mi BSA. Antigen was immobilized on one flow cell surface of a CM5 sensor chip and the others were left blank to serve as reference surfaces. For each scFv, triplicates of 0, 0.5, 2.8, 8.3, 25, 75 and 225 nM were injected across the immobilized antigen. The association and dissociation phases were monitored for 1 and 20 minutes, respectively. The antigen surface was regenerated with four 18-second pulses of 2.5 mM NaOH between injections.
The binding affinities of double mutants FP960 and FP965 and triple mutants FP990 and FP999 were compared to the parental molecule by surface plasmon resonance. Recombinant p97 was immobilized on a BIACore CM5 sensor chip and varying concentrations of each scFv fusion protein were injected across the chip in triplicate.

[1] = test system: H3677 human melanoma xenografts; conditions: fusion protein 1 mg/kg i.v. followed 24 h later by C-Mel 100 mg/kg, q7dx3
p97 = target: T3, p97 (Homo sapiens, UniProt P08582); conditions: parental molecule expressed in the E. coli periplasm; cited from earlier work
T3 sequence (P08582 20-709): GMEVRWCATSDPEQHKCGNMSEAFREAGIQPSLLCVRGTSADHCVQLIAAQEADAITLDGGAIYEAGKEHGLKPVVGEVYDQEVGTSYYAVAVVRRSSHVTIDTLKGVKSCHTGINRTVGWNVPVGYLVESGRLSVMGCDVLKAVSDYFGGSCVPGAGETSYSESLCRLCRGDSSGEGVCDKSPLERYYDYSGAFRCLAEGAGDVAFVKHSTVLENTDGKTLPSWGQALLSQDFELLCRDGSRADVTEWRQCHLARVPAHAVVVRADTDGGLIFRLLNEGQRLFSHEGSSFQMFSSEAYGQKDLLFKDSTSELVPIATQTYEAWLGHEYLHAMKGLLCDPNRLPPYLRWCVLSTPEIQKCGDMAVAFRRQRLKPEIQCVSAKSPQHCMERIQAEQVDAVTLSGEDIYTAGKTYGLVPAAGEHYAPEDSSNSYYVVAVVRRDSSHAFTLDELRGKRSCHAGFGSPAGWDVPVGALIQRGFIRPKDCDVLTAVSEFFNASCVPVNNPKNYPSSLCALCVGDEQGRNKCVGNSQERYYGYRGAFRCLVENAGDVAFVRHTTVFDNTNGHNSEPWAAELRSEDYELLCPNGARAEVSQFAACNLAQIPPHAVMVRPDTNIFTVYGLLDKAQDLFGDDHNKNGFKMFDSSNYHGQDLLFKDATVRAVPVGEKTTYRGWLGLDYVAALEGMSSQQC

[2] = cited from earlier work

Molecule | antigen binding in SEC assay (purified p97 antigen) | ka (Recombinant p97) | kd (Recombinant p97) | tumor response [1] | Kd (p97) [nM] | tumor to blood ratio ([2]; 24-48 hours after the fusion protein was administered) | terminal half-life t1/2β ([2]; clearance from systemic circulation) [h]
FP999: triple mutant K H39 Q, F H82B S, N H91 Y in reverse bL-L49-sFv orientation (β-lactamase at amino terminus) (protein) TPVSEKQLAEVVANTITPLMKAQSVPGMAVAVIYQGKPHYYTFGKADIAANKPVTPQTLFELGSISKTFTGVLGGDAIARGEISLDDAVTRYWPQLTGKQWQGIRMLDLATYTAGGLPLQVPDEVTDNASLLRFYQNWQPQWKPGTTRLYANASIGLFGALAVKPSGMPYEQAMTTRVLKPLKLDHTWINVPKAEEAHYAWGYRDGKAVRVSPGMLDAQAYGVKTNVQDMANWVMANMAPENVADASLKQGIALAQSRYWRIGSMYQGLGWEMLNWPVEANTVVETSFGNVALAPLPVAEVNPPAPPVKASWVHKTGSTGGFGSYVAFIPEKQIGIVMLANTSYPNPARVEAAYHILEALQMHGTKLMEVQLQESGPSLVKPSQTLSLTCSVTGDSITSGYWNWIRQFPGNKLEYMGYISDSGITYYNPSLKSRISITRDTSKNQYYLQLNSVTAEDTATYYCARRTLATYYAMDYWGQGTSVTVSSGSTSGSGKPGSGEGSTKGDFVMTQTPLSLPVSLGDQASISCRASQSLVHSNGNTYLHWYLQKPGQSPKLLIYRVSNRFSGVPDRFSGSGSGTDFTLKISRVEAEDLGVYFCSQSTHVPPTFGGGTKLEIKR | bound completely to antigen | 3.373(3) × 10^5 M^−1 s^−1 | 5.755(7) × 10^−4 s^−1 | significant tumor regression | – | – | –
FP95: parental (wt) L49-sFv-bL fusion protein refolded from E. coli inclusion bodies (protein) scFv: MEVQLQESGPSLVKPSQTLSLTCSVTGDSITSGYWNWIRKFPGNKLEYMGYISDSGITYYNPSLKSRISITRDTSKNQYYLQLNFVTAEDTATYNCARRTLATYYAMDYWGQGTSVTVSSGSTSGSGKPGSGEGSTKGDFVMTQTPLSLPVSLGDQASISCRASQSLVHSNGNTYLHWYLQKPGQSPKLLIYRVSNRFSGVPDRFSGSGSGTDFTLKISRVEAEDLGVYFCSQSTHVPPTFGGGTKLEIKRTPVSEKQLAEVVANTITPLMKAQSVPGMAVAVIYQGKPHYYTFGKADIAANKPVTPQTLFELGSISKTFTGVLGGDAIARGEISLDDAVTRYWPQLTGKQWQGIRMLDLATYTAGGLPLQVPDEVTDNASLLRFYQNWQPQWKPGTTRLYANASIGLFGALAVKPSGMPYEQAMTTRVLKPLKLDHTWINVPKAEEAHYAWGYRDGKAVRVSPGMLDAQAYGVKTNVQDMANWVMANMAPENVADASLKQGIALAQSRYWRIGSMYQGLGWEMLNWPVEANTVVETSFGNVALAPLPVAEVNPPAPPVKASWVHKTGSTGGFGSYVAFIPEKQIGIVMLANTSYPNPARVEAAYHILEALQ | bound antigen completely | 3.038(2) × 10^5 M^−1 s^−1 | 7.004(5) × 10^−4 s^−1 | – | – | – | –
FP990: L49-sFv-bL triple mutant K H39 Q, F H82B S, N H91 Y (protein) scFv: MEVQLQESGPSLVKPSQTLSLTCSVTGDSITSGYWNWIRQFPGNKLEYMGYISDSGITYYNPSLKSRISITRDTSKNQYYLQLNSVTAEDTATYYCARRTLATYYAMDYWGQGTSVTVSSGSTSGSGKPGSGEGSTKGDFVMTQTPLSLPVSLGDQASISCRASQSLVHSNGNTYLHWYLQKPGQSPKLLIYRVSNRFSGVPDRFSGSGSGTDFTLKISRVEAEDLGVYFCSQSTHVPPTFGGGTKLEIKRTPVSEKQLAEVVANTITPLMKAQSVPGMAVAVIYQGKPHYYTFGKADIAANKPVTPQTLFELGSISKTFTGVLGGDAIARGEISLDDAVTRYWPQLTGKQWQGIRMLDLATYTAGGLPLQVPDEVTDNASLLRFYQNWQPQWKPGTTRLYANASIGLFGALAVKPSGMPYEQAMTTRVLKPLKLDHTWINVPKAEEAHYAWGYRDGKAVRVSPGMLDAQAYGVKTNVQDMANWVMANMAPENVADASLKQGIALAQSRYWRIGSMYQGLGWEMLNWPVEANTVVETSFGNVALAPLPVAEVNPPAPPVKASWVHKTGSTGGFGSYVAFIPEKQIGIVMLANTSYPNPARVEAAYHILEALQ | – | 4.476(1) × 10^5 M^−1 s^−1 | 7.819(3) × 10^−4 s^−1 | significant tumor regression | – | – | –
L49-sFv-bL: parental L49 single-chain Fv fused to Enterobacter cloacae β-lactamase, solubly expressed in the E. coli periplasm (Siemers et al., 1997) (protein) scFv: MEVQLQESGPSLVKPSQTLSLTCSVTGDSITSGYWNWIRKFPGNKLEYMGYISDSGITYYNPSLKSRISITRDTSKNQYYLQLNFVTAEDTATYNCARRTLATYYAMDYWGQGTSVTVSSGSTSGSGKPGSGEGSTKGDFVMTQTPLSLPVSLGDQASISCRASQSLVHSNGNTYLHWYLQKPGQSPKLLIYRVSNRFSGVPDRFSGSGSGTDFTLKISRVEAEDLGVYFCSQSTHVPPTFGGGTKLEIKRTPVSEKQLAEVVANTITPLMKAQSVPGMAVAVIYQGKPHYYTFGKADIAANKPVTPQTLFELGSISKTFTGVLGGDAIARGEISLDDAVTRYWPQLTGKQWQGIRMLDLATYTAGGLPLQVPDEVTDNASLLRFYQNWQPQWKPGTTRLYANASIGLFGALAVKPSGMPYEQAMTTRVLKPLKLDHTWINVPKAEEAHYAWGYRDGKAVRVSPGMLDAQAYGVKTNVQDMANWVMANMAPENVADASLKQGIALAQSRYWRIGSMYQGLGWEMLNWPVEANTVVETSFGNVALAPLPVAEVNPPAPPVKASWVHKTGSTGGFGSYVAFIPEKQIGIVMLANTSYPNPARVEAAYHILEALQ | – | – | – | – | 1 | 141-150 :1 | 2.5
